The target in one assay is T1, human GIP receptor (human, UniProt P48546 22-466).
T1 sequence (looked up): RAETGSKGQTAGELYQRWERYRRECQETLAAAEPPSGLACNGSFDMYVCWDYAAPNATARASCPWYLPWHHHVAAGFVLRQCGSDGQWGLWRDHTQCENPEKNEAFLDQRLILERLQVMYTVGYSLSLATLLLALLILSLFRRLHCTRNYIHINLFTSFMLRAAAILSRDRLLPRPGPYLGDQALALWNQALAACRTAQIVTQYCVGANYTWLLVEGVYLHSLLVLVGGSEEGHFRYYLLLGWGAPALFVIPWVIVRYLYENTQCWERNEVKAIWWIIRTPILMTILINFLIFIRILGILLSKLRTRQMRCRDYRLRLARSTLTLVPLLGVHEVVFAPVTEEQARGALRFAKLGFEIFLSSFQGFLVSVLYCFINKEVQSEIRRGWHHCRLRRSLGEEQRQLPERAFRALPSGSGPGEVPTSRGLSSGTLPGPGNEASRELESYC
The assay is described as follows: cell-based or functional assay.

The target in another assay is T2, human GLP-2 receptor (human, UniProt O95838 1-553).
T2 sequence (looked up): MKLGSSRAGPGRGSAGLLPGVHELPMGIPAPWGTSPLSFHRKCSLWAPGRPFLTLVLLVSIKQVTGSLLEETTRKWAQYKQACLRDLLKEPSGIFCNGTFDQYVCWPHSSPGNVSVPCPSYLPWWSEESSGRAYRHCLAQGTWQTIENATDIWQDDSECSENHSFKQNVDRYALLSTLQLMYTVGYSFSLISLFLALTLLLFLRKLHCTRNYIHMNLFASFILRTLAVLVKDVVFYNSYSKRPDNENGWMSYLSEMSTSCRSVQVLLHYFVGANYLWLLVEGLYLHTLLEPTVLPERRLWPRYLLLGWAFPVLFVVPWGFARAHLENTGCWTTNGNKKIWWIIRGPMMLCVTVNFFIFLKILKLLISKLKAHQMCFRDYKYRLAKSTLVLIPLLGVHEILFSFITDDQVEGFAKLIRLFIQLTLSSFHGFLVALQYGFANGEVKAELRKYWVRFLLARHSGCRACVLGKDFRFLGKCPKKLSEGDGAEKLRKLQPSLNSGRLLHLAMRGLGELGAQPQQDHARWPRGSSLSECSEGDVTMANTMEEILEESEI
The experiment in a line: cell-based or functional assay.

Consider HAEGTFISDYSTILDNLAARDFINWLIQTKITDNDWKHNITQ [GIP-GLP-2 co-agonist 2], for which, in the assay with human GIP receptor, the “EC50 (cAMP)” value is 12 nM; the “Emax (1 µM), % of native GIP” value amounted to 100%; the “fold (EC50 vs native GIP)” value amounted to 135 fold; the “logEC50 (cAMP)” value was -7.92. Moreover, in the assay with human GLP-2 receptor, the “EC50 (cAMP)” value came to 145 nM; the “Emax (1 µM), % of native GLP-2” value amounted to 93%; the “fold (EC50 vs native GLP-2)” value came out at 121 fold; the “logEC50 (cAMP)” value was -6.84.

Consider HAEGTFSDEYSTILDNLAARDFINWLIQTKITD [GIP-GLP-2 co-agonist 5], for which, in the assay with human GIP receptor, the “EC50 (cAMP)” value was 456 nM; the “Emax (10 µM), % of native GIP” value came out at 75%; the “fold (EC50 vs native GIP)” value worked out at 5120 fold; the “logEC50 (cAMP)” value was -6.34. For the same molecule, in the assay with human GLP-2 receptor, the “EC50 (cAMP)” value was 6.2 nM; the “Emax (10 µM), % of native GLP-2” value was found to be 91%; the “fold (EC50 vs native GLP-2)” value was found to be 5.2 fold; the “logEC50 (cAMP)” value is -8.21.

For the molecule HAEGTFISDYSTILDNLAARDFVNWLLAQKITD [GIP-GLP-2 co-agonist 9], in the assay with human GIP receptor, the “EC50 (cAMP)” value was 3.2 nM; the “Emax (10 µM), % of native GIP” value was 100%; the “fold (EC50 vs native GIP)” value was found to be 36 fold; the “logEC50 (cAMP)” value is -8.5. In addition, in the assay with human GLP-2 receptor, the “EC50 (cAMP)” value was 123 nM; the “Emax (10 µM), % of native GLP-2” value was found to be 67%; the “fold (EC50 vs native GLP-2)” value stood at 103 fold; the “logEC50 (cAMP)” value is -6.91.

For the molecule HVDGTFISDYSTILDNLAARDFINWLIQTKITD [GIP-GLP-2 co-agonist 12], in the assay with human GIP receptor, the “EC50 (cAMP)” value worked out at 1.1 nM; the “Emax (10 µM), % of native GIP” value is 96%; the “fold (EC50 vs native GIP)” value was 12 fold; the “logEC50 (cAMP)” value was -8.96. In the assay with human GLP-2 receptor, the “EC50 (cAMP)” value is 25 nM; the “Emax (10 µM), % of native GLP-2” value was 81%; the “fold (EC50 vs native GLP-2)” value was 21 fold; the “logEC50 (cAMP)” value is -7.6.

In the case of HADGTFISDYSTILDNLAARDFINWLIQTKITK [GIP-GLP-2 co-agonist 18], in the assay with human GIP receptor, the “EC50 (cAMP)” value was found to be 0.66 nM; the “Emax (10 µM), % of native GIP” value came out at 89%; the “fold (EC50 vs native GIP)” value worked out at 7.4 fold; the “logEC50 (cAMP)” value was -9.18. In the assay with human GLP-2 receptor, the “EC50 (cAMP)” value amounted to 5.3 nM; the “Emax (10 µM), % of native GLP-2” value turned out to be 94%; the “fold (EC50 vs native GLP-2)” value turned out to be 4.4 fold; the “logEC50 (cAMP)” value was -8.28.

For HADGTFSSDYSTILDNLAARDFINWLIQTKITD [GIP-GLP-2 co-agonist 13], in the assay with human GIP receptor, the “EC50 (cAMP)” value was 12 nM; the “Emax (10 µM), % of native GIP” value is 91%; the “fold (EC50 vs native GIP)” value was 135 fold; the “logEC50 (cAMP)” value is -7.92. In addition, in the assay with human GLP-2 receptor, the “EC50 (cAMP)” value came to 11 nM; the “Emax (10 µM), % of native GLP-2” value was determined as 99%; the “fold (EC50 vs native GLP-2)” value worked out at 9.2 fold; the “logEC50 (cAMP)” value was -7.95.

HADGTFISDYSTILDNLAARDFINWLIQTKGTD [GIP-GLP-2 co-agonist 16]: in the assay with human GIP receptor, the “EC50 (cAMP)” value was found to be 0.6 nM; the “Emax (10 µM), % of native GIP” value came to 95%; the “fold (EC50 vs native GIP)” value was determined as 6.7 fold; the “logEC50 (cAMP)” value is -9.22. For the same molecule, in the assay with human GLP-2 receptor, the “EC50 (cAMP)” value was found to be 82 nM; the “Emax (10 µM), % of native GLP-2” value was found to be 74%; the “fold (EC50 vs native GLP-2)” value came out at 68 fold; the “logEC50 (cAMP)” value is -7.06.

On to HAEGSFISDYSTILDNLAARDFINWLIQTKITD [GIP-GLP-2 co-agonist 4], for which, in the assay with human GIP receptor, the “EC50 (cAMP)” value stood at 38 nM; the “Emax (10 µM), % of native GIP” value is 83%; the “fold (EC50 vs native GIP)” value came to 427 fold; the “logEC50 (cAMP)” value is -7.42. In the assay with human GLP-2 receptor, the “EC50 (cAMP)” value turned out to be 25 nM; the “Emax (10 µM), % of native GLP-2” value was 90%; the “fold (EC50 vs native GLP-2)” value came out at 21 fold; the “logEC50 (cAMP)” value was -7.59.

On to HAEGTFISDYSTILDNLAARDFINWLIQTKITD [GIP-GLP-2 co-agonist 1], for which, in the assay with human GIP receptor, the “EC50 (cAMP)” value was 30 nM; the “Emax (1 µM), % of native GIP” value turned out to be 100%; the “fold (EC50 vs native GIP)” value came to 337 fold; the “logEC50 (cAMP)” value is -7.53. Besides, in the assay with human GLP-2 receptor, the “EC50 (cAMP)” value came to 98 nM; the “Emax (1 µM), % of native GLP-2” value came to 93%; the “fold (EC50 vs native GLP-2)” value is 82 fold; the “logEC50 (cAMP)” value was -7.01.

For the molecule HADGTFIDDYSTILDNLAARDFINWLIQTKITD [GIP-GLP-2 co-agonist 14], in the assay with human GIP receptor, the “EC50 (cAMP)” value stood at 2.4 nM; the “Emax (10 µM), % of native GIP” value turned out to be 94%; the “fold (EC50 vs native GIP)” value amounted to 27 fold; the “logEC50 (cAMP)” value is -8.63. In the assay with human GLP-2 receptor, the “EC50 (cAMP)” value was 11 nM; the “Emax (10 µM), % of native GLP-2” value is 90%; the “fold (EC50 vs native GLP-2)” value turned out to be 9.2 fold; the “logEC50 (cAMP)” value was -7.97.

For HADGTFISDYSTILDNLAARDFINWLIQTKITD [GIP-GLP-2 co-agonist 3], in the assay with human GIP receptor, the “EC50 (cAMP)” value was 0.11 nM; the “Emax (10 µM), % of native GIP” value turned out to be 100%; the “fold (EC50 vs native GIP)” value was determined as 1.2 fold; the “logEC50 (cAMP)” value is -9.97. In addition, in the assay with human GLP-2 receptor, the “EC50 (cAMP)” value came to 21 nM; the “Emax (10 µM), % of native GLP-2” value stood at 100%; the “fold (EC50 vs native GLP-2)” value was determined as 18 fold; the “logEC50 (cAMP)” value was -7.67.

For HADGTFISEYSTILDNLAARDFINWLIQTKITD [GIP-GLP-2 co-agonist 15], in the assay with human GIP receptor, the “EC50 (cAMP)” value is 3.2 nM; the “Emax (10 µM), % of native GIP” value is 92%; the “fold (EC50 vs native GIP)” value worked out at 36 fold; the “logEC50 (cAMP)” value is -8.5. For the same molecule, in the assay with human GLP-2 receptor, the “EC50 (cAMP)” value turned out to be 6.7 nM; the “Emax (10 µM), % of native GLP-2” value was determined as 104%; the “fold (EC50 vs native GLP-2)” value was determined as 5.6 fold; the “logEC50 (cAMP)” value was -8.18.

As to HADGTFISDYSTILDNLAARDFINWLIQTKIKD [GIP-GLP-2 co-agonist 17], in the assay with human GIP receptor, the “EC50 (cAMP)” value stood at 0.4 nM; the “Emax (10 µM), % of native GIP” value amounted to 95%; the “fold (EC50 vs native GIP)” value is 4.5 fold; the “logEC50 (cAMP)” value was -9.39. Further, in the assay with human GLP-2 receptor, the “EC50 (cAMP)” value worked out at 25 nM; the “Emax (10 µM), % of native GLP-2” value is 88%; the “fold (EC50 vs native GLP-2)” value worked out at 21 fold; the “logEC50 (cAMP)” value is -7.61.

As for HAEGTFISDMNTILDNLAARDFINWLIQTKITD [GIP-GLP-2 co-agonist 6], in the assay with human GIP receptor, the “EC50 (cAMP)” value stood at 172 nM; the “Emax (10 µM), % of native GIP” value worked out at 83%; the “fold (EC50 vs native GIP)” value worked out at 1930 fold; the “logEC50 (cAMP)” value is -6.77. Also, in the assay with human GLP-2 receptor, the “EC50 (cAMP)” value is 60 nM; the “Emax (10 µM), % of native GLP-2” value amounted to 70%; the “fold (EC50 vs native GLP-2)” value amounted to 50 fold; the “logEC50 (cAMP)” value was -7.22.

For HADGTFISDYSTILDNLAARDFINWLIQTKGKK [GIP-GLP-2 co-agonist 19], in the assay with human GIP receptor, the “EC50 (cAMP)” value stood at 0.25 nM; the “Emax (10 µM), % of native GIP” value was 93%; the “logEC50 (cAMP)” value is -9.6. In the assay with human GLP-2 receptor, the “Emax (10 µM), % of native GLP-2” value was found to be 91%.

Regarding HAEGTFISDYSIAMDKLAARDFINWLIQTKITD [GIP-GLP-2 co-agonist 7], in the assay with human GIP receptor, the “EC50 (cAMP)” value is 26 nM; the “Emax (10 µM), % of native GIP” value is 92%; the “fold (EC50 vs native GIP)” value was found to be 292 fold; the “logEC50 (cAMP)” value is -7.59. Also, in the assay with human GLP-2 receptor, the “EC50 (cAMP)” value stood at 351 nM; the “Emax (10 µM), % of native GLP-2” value was determined as 78%; the “fold (EC50 vs native GLP-2)” value is 293 fold; the “logEC50 (cAMP)” value is -6.45.

HAEGTFISDYSTILDNLAARDFINWLIQTKGKK [GIP-GLP-2 co-agonist 10]: in the assay with human GIP receptor, the “EC50 (cAMP)” value stood at 5.4 nM; the “Emax (10 µM), % of native GIP” value worked out at 100%; the “fold (EC50 vs native GIP)” value was 61 fold; the “logEC50 (cAMP)” value is -8.27. Also, in the assay with human GLP-2 receptor, the “EC50 (cAMP)” value turned out to be 22 nM; the “Emax (10 µM), % of native GLP-2” value was found to be 77%; the “fold (EC50 vs native GLP-2)” value stood at 18 fold; the “logEC50 (cAMP)” value is -7.66.

For HAEGTFISDYSTILDNIHQQDFINWLIQTKITD [GIP-GLP-2 co-agonist 8], in the assay with human GIP receptor, the “EC50 (cAMP)” value is 5.9 nM; the “Emax (10 µM), % of native GIP” value was 100%; the “fold (EC50 vs native GIP)” value is 66 fold; the “logEC50 (cAMP)” value was -8.23. For the same molecule, in the assay with human GLP-2 receptor, the “Emax (10 µM), % of native GLP-2” value was 22% and the “logEC50 (cAMP)” value is above -5.

The values are drawn from patent publication US20200392198A1 (UNIVERSITY OF COPENHAGEN, published 2020).
